From patent US20220332804A1 (CSL INNOVATION, published 2022)

Key:
Experiment in all cases: SPR, antibody captured, C2 as analyte;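 further: biacore SPR at 37 °C, anti-C2 mAbs captured via goat anti-human IgG on CM5 chips, double-referenced sensorgrams fit to a 1:1 kinetic or steady-state model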
[1] = target: T1, human C2 N380A (human, UniProt P06681 21-752)
T1 sequence: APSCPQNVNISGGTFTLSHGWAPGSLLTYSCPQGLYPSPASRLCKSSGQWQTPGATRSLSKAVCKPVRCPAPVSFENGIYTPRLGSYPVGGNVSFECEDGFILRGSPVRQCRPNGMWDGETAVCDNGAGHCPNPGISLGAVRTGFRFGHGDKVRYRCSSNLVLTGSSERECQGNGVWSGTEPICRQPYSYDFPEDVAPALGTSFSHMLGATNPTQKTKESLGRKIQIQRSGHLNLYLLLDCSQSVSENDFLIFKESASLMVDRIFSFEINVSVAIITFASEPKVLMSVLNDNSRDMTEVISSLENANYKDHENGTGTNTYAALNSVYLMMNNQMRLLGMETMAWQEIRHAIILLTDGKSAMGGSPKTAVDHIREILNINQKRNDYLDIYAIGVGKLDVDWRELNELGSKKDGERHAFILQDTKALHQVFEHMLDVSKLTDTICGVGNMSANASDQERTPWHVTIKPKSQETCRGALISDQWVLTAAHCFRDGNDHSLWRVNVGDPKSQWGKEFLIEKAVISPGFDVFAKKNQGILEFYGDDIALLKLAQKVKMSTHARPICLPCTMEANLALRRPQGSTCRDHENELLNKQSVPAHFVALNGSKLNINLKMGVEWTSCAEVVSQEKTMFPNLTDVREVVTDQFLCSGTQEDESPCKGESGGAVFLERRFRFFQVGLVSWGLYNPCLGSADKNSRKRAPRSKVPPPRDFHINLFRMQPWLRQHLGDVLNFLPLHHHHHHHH

[2] = target: T2, human C2 D561A (human, UniProt P06681 21-752)
T2 sequence: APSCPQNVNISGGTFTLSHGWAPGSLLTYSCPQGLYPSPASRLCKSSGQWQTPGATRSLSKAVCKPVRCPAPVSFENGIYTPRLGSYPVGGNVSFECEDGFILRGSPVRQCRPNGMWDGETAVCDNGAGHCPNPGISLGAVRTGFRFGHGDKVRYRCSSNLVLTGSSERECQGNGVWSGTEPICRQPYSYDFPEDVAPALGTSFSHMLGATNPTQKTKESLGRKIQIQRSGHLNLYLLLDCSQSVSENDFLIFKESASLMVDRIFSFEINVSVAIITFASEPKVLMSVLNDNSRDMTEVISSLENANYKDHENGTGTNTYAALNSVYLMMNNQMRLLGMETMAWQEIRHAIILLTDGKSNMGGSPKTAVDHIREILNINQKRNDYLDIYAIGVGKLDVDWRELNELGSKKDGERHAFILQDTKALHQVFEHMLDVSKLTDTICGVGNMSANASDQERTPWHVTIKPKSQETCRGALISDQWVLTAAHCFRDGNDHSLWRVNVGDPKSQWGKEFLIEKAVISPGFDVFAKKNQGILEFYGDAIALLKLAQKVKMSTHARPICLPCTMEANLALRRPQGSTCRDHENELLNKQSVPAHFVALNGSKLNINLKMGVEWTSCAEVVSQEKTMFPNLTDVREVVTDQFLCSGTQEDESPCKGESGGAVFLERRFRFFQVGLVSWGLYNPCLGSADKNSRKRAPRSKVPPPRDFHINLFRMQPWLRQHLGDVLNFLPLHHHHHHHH

[3] = target: T3, human C2 Y328A (human, UniProt P06681 21-752)
T3 sequence: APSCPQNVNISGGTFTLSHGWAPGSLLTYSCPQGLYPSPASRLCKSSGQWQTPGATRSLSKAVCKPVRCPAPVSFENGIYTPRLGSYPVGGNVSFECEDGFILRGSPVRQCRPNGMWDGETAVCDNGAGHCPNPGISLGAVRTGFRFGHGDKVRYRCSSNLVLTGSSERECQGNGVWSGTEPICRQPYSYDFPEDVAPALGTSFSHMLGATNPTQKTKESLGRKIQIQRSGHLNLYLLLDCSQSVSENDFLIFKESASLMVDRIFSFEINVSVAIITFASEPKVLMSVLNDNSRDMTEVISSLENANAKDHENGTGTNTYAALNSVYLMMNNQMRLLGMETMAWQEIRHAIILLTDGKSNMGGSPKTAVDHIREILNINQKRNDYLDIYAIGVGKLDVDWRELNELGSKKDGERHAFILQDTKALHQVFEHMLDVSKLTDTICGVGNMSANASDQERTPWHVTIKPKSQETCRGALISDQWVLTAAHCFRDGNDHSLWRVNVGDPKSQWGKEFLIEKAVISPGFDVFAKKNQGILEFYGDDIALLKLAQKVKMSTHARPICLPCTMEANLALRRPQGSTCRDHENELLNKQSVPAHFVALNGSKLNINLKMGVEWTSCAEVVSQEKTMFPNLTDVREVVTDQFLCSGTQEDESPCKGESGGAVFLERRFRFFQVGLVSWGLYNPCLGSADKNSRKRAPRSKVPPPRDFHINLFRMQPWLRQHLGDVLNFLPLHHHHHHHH

[4] = target: T4, human C2 S473A (human, UniProt P06681 21-752)
T4 sequence: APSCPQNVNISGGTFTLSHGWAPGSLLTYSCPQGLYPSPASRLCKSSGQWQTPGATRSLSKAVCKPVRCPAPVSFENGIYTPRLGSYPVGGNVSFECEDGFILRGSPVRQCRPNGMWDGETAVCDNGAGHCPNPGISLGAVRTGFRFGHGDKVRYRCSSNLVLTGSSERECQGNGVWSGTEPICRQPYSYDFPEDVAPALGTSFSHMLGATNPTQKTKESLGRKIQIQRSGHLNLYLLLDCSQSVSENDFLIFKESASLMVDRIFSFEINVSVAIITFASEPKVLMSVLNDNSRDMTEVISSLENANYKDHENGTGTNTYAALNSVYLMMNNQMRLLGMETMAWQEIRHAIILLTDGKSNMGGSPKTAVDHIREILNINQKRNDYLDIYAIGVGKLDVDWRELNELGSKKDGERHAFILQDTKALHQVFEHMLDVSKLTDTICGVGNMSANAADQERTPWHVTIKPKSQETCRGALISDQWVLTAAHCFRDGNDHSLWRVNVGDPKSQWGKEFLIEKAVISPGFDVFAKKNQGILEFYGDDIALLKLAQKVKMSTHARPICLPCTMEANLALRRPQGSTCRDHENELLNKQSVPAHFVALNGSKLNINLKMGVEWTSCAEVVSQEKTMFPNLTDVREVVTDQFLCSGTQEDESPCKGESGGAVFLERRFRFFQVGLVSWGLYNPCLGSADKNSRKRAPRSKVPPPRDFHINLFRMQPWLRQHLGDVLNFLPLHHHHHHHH

B1: RF16-226 (antibody, human IgG4 S228P, lambda)
heavy: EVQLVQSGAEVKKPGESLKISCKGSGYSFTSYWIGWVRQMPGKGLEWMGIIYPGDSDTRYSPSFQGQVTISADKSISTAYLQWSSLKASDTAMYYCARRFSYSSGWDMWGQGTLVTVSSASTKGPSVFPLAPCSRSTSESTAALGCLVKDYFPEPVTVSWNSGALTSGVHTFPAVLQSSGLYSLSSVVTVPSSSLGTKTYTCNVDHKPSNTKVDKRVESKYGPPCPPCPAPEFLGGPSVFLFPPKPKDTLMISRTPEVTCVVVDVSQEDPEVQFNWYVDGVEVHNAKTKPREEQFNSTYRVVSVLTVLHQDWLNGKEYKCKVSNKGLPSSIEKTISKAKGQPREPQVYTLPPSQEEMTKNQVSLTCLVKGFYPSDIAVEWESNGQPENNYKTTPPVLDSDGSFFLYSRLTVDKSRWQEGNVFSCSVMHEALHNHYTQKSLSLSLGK
light: SYELTQPPSVSVSPGQTARITCSGDALTSKYVAWYQQKSGLAPLLVIYEDTRRPSGIPAKFSGSSSGSVATLTISGAHGDDEADYYCYSTDASGHQRVFGGGTKLTVLSQPKAAPSVTLFPPSSEELQANKATLVCLISDFYPGAVTVAWKADGSPVKAGVETTKPSKQSNNKYAASSYLSLTPEQWKSHRSYSCQVTHEGSTVEKTVAPTECS
notes: pH-dependent anti-C2 antibody from a phage display library; also called WT
B1 gave a Kd [1] of 15.1 nM, a Kd [2] of 102 nM and a Kd [3] of 78.4 nM. For the same binder, the Kd [4] was 14.2 nM.
